Tests used:
[1] = biological target: His6-BrxU WT (Escherichia fergusonii ATCC 35469); assay: SEC; analytical SEC, Superdex 200 Increase 5/150, 20 mM Tris-HCl pH 7.9, 150 mM NaCl; 500 nM BrxU pre-incubated at 37°C for 15 min with 10 mM MgSO4, no nucleotide; dimer to monomers
[2] = biological target: untagged BrxU (Escherichia fergusonii ATCC 35469); assay: SEC; analytical SEC, Superdex 200 Increase 5/150, 20 mM Tris-HCl pH 7.9, 150 mM NaCl; 500 nM BrxU pre-incubated at 37°C for 15 min; no nucleotide, no MgSO4; dimer to monomers

Substance	stoichiometry N [1]	stoichiometry N [2]
His6-BrxU WT (enzyme)	2	
untagged BrxU (enzyme)		2

From PMC8565348
